Data published in PMC5014597.
Read-outs that look alike come from different tables or passages of the source.

Legend:
[1] = molecular target: TDP-43 C-terminal domain (residues 267-414) M337V (human) (UniProt Q13148)
[2] = molecular target: TDP-43 C-terminal domain (residues 267-414), wild type (human) (UniProt Q13148); assay: 15N CPMG relaxation dispersion NMR
[3] = molecular target: TDP-43 C-terminal domain (residues 267-414), wild type (human) (UniProt Q13148); assay: 15N CPMG relaxation dispersion NMR; remark: listed apart in the source

Row | decrease of turbidity of 20 µM CTD in 150 mM NaCl against wild type [1] | kex (kon + koff, global exchange rate) [2] | koff [2] | kex (kon + koff, global exchange rate) [3] | koff [3] | Substance
1 | 50% |  |  |  |  | TDP-43 C-terminal domain (residues 267-414) M337V (from UniProt Q13148 267-414) (domain or fragment)
2 |  | 1200 s⁻¹ | 1100 s⁻¹ | 1000 s⁻¹ | 970 s⁻¹ | TDP-43 C-terminal domain (residues 267-414), wild type (from UniProt Q13148 267-414) (domain or fragment)
